According to article PMC3982999:

Molecular target: GST-tetra-ubiquitin (4×UB) (UniProt P0CG48)
Experiment: LUMIER

fold weaker binding than to 2×UB: 4 fold
B1: Renilla luciferase fused to the full-length WT spartin (natural protein)
chain: MEQEPQNGEPAEIKIIREAYKKAFLFVNKGLNTDELGQKEEAKNYYKQGIGHLLRGISISSKESEHTGPGWESARQMQQKMKETLQNVRTRLEILEKGLATSLQNDLQEVPKLYPEFPPKDMCEKLPEPQSFSSAPQHAEVNGNTSTPSAGAVAAPASLSLPSQSCPAEAPPAYTPQAAEGHYTVSYGTDSGEFSSVGEEFYRNHSQPPPLETLGLDADELILIPNGVQIFFVNPAGEVSAPSYPGYLRIVRFLDNSLDTVLNRPPGFLQVCDWLYPLVPDRSPVLKCTAGAYMFPDTMLQAAGCFVGVVLSSELPEDDRELFEDLLRQMSDLRLQANWNRAEEENEFQIPGRTRPSSDQLKEASGTDVKQLDQGNKDVRHKGKRGKRAKDTSSEEVNLSHIVPCEPVPEEKPKELPEWSEKVAHNILSGASWVSWGLVKGAEITGKAIQKGASKLRERIQPEEKPVEVSPAVTKGLYIAKQATGGAAKVSQFLVDGVCTVANCVGKELAPHVKKHGSKLVPESLKKDKDGKSPLDGAMVVAASSVQGFSTVWQGLECAAKCIVNNVSAETVQTVRYKYGYNAGEATHHAVDSAVNVGVTAYNINNIGIKAMVKKTATQTGHTLLEDYQIVDNSQRENQEGAANVNVRGEKDEQTKEVKEAKKKDK
